In data set [1] the target is T1, RPAcoreΔP (human, UniProt P27694;P15927;P35244 438-616;35-270;1-121). Kind of data set: BLI. (In general: Biolayer interferometry detects binding as a change in optical thickness at a sensor tip.)
Data set [2] addresses T1, RPAcoreΔP. The data set can be described thus: BLI. The source holds these as a separate data set.
The target in data set [3] is RPAcoreΔP,W (minimal trimerization core, domains C, D, E) (human, UniProt P27694;P15927;P35244 438-616;35-174;1-121). Kind of data set: BLI.
Data set [4] has as its target RPAcore;PolαCD (catalytic domain of DNA polymerase alpha) (human;human, UniProt P27694;P15927;P35244;P09884 438-616;1-270;1-121;335-1257, |). The data set can be described thus: cryo-EM.

Substitutions are numbered along the chain they refer to. Where two headings read alike, the source gives them in different places.

The results in this text go back to article doi:10.1101/2024.03.11.584335.

One may read the Kd as the equilibrium constant for the complex coming apart.

T1 sequence (P27694 438-616, stated change not applied, chain 1 of 3): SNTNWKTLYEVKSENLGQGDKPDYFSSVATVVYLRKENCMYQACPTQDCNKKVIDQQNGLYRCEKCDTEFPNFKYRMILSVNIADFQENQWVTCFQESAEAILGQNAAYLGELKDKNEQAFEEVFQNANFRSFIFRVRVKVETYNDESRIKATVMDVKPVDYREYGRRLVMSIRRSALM
T1 sequence (P15927 35-270, stated change not applied, chain 2 of 3): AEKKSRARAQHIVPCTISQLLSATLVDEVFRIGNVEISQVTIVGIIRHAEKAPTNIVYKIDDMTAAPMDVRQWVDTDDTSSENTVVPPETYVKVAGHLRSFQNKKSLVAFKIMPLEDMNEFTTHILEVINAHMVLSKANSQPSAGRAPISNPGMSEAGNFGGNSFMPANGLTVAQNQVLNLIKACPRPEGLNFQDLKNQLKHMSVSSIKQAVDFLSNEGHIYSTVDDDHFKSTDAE
T1 sequence (P35244 whole entry, stated change not applied, chain 3 of 3): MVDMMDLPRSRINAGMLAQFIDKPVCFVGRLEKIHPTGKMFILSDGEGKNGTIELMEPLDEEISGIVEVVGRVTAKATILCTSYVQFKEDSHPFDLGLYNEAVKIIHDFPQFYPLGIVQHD
RPAcoreΔP,W (minimal trimerization core, domains C, D, E), sequence (P27694 438-616, stated change not applied, chain 1 of 3): as the sequence (P27694 438-616, stated change not applied, chain 1 of 3) above
RPAcoreΔP,W (minimal trimerization core, domains C, D, E), sequence (P15927 35-174, stated change not applied, chain 2 of 3): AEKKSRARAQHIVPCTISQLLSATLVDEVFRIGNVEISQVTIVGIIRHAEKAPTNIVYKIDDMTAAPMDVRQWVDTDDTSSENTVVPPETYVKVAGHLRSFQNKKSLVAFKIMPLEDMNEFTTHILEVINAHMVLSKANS
RPAcoreΔP,W (minimal trimerization core, domains C, D, E), sequence (P35244 whole entry, stated change not applied, chain 3 of 3, the tested form may be a part): as the sequence (P35244 whole entry, stated change not applied, chain 3 of 3) above
RPAcore;PolαCD (catalytic domain of DNA polymerase alpha), sequence (P27694 438-616, chain 1 of 4): as the sequence (P27694 438-616, stated change not applied, chain 1 of 3) above
RPAcore;PolαCD (catalytic domain of DNA polymerase alpha), sequence (P15927 whole entry, chain 2 of 4, the tested form may be a part): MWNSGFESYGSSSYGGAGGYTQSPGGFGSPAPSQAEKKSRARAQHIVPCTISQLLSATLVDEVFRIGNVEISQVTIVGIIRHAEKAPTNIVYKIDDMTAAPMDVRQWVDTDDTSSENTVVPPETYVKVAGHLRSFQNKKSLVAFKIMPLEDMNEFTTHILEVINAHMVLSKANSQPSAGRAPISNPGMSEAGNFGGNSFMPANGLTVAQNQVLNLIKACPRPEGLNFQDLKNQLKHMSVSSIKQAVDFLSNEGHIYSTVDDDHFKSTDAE
RPAcore;PolαCD (catalytic domain of DNA polymerase alpha), sequence (P35244 whole entry, chain 3 of 4, the tested form may be a part): as the sequence (P35244 whole entry, stated change not applied, chain 3 of 3) above
RPAcore;PolαCD (catalytic domain of DNA polymerase alpha), sequence (P09884 335-1257, chain 4 of 4): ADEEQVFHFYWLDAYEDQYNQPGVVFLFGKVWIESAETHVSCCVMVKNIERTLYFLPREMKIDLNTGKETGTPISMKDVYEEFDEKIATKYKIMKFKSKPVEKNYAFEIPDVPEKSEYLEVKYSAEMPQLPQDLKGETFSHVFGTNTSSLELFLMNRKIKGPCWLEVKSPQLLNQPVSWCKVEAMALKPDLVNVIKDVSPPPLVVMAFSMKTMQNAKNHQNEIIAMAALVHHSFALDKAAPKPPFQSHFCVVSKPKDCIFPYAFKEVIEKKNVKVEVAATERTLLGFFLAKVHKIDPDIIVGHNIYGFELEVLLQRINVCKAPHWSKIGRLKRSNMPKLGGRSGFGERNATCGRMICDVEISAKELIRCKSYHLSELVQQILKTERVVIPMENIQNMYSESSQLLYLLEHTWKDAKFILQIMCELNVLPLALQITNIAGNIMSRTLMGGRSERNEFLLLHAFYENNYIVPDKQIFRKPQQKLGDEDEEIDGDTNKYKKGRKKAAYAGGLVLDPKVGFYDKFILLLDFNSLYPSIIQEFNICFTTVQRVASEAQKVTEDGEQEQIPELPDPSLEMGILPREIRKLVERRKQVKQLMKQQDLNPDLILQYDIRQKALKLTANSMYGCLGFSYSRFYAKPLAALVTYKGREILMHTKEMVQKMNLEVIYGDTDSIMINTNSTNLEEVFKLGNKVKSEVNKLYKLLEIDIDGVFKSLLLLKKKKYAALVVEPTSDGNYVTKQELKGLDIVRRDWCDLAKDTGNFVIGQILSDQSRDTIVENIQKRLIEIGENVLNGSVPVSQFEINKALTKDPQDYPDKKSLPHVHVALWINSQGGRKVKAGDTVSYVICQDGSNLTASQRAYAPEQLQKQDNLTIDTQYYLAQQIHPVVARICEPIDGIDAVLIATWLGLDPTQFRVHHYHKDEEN

B1: T8:P3 template:primer (mixed)
DNA: AATCTAGTAACATAGTATACATAAGCGCTCCAGGC
RNA: GCCUGGAGCGC
modifications: P3 is a chimeric RNA-DNA primer (RNA/DNA boundary not in the material) with 3'-dideoxycytidine
As for B1, the results for the Kd in data set [1], in data set [2] and in data set [3] were 50.3 ± 6.6 nM, 124 ± 15 nM and 90.2 ± 4.5 nM, respectively.

B2: T9:P4 template:primer (mixed)
DNA: B1 DNA with A24G
RNA: GCCUGGAGCGC
modifications: P4 primer contains U (RNA-DNA chimera?) and 3'-dideoxycytidine
As to B2, in data set [4], the binding result is on record as “binds”.
